{
  "source": "the DeepSol protein solubility set",
  "data": [
    {"experiment": "soluble on expression in E. coli; label from the status in PepcDB or PDB records", "values": [
      {"sequence": "GSHMDYNKRSSVSTVPNAAPIRVGFVGLNAAKGWAIKTHYPAILQLSSQFQITALYSPKIETSIATIQRLKLSNATAFPTLESFASSSTIDMIVIAIQVASHYEVVMPLLEFSKNNPNLKYLFVEWALACSLDQAESIYKAAAERGVQTIISLQGRKSPYILRAKELISQGYIGDINSIEIAGNGGWYGYERPVKSPKYIYEIGNGVDLVTTTFGHTIDILQYMTSSYFSRINAMVFNNIPEQELIDERGNRLGQRVPKTVPDHLLFQGTLLNGNVPVSCSFKGGKPTKKFTKNLVIDIHGTKGDLKLEGDAGFAEISNLVLYYSGTRANDFPLANGQQAPLDPGYDAGKEIMKVYHLRNYNAIVGNIHRLYQSISDFHFNTKKIPELPSQFVMQGFDFEGFPTLMDALILHRLIESVYKSNMMGSTLNVSNISHYSL", "soluble on expression in E. coli": "soluble"},
      {"sequence": "GSHMGDKEKETLFKDYLNLIVVKMTEWIGNLEKAEFDVFLERSTPPHSDSDGLLFLDGTKTCFQMFTQQVEVAAGTNQAKILVGVVERFSDLLTKRQKNWISKISEEIKKQINYNHKYDIDPESITPEDECPGGLVEYLIAVSNDQMKAADYAVAISSKYGKLVSKVYEKQITNHLEGTLDGFAEVAQCSSLGLITLMFDDLRKPYQEIFSKTWYMGSQAQQIADTLDEYLLDIKPQMNSVLFVNFIDNVIGETIIKFLTALSFEHSFKNKNNKFLEAMKRDFEIFYQLFVKVLDGNESKDTLITQNFTVMEFFMDLSCEPIDSILDIWQKYLEVYWDSRIDLLVGILKCRKDVSSSERKKIVQQATEMLHEYRRNMEANGVDREPTLMRRFVLEFEKQ", "soluble on expression in E. coli": "soluble"},
      {"sequence": "GSHMKVDITIKIQRDGQEIEIDIRVSTGKELERALQELEKALARAGARNVQITISAENDEQAKELLELIARLLQKLGYKDINVRVNGTEVKIEVRV", "soluble on expression in E. coli": "soluble"},
      {"sequence": "GSHMLETEDVVRARDAHLRSILDTVPDATVVSATDGTIVSFNAAAVRQFGYAEEEVIGQNLRILMPEPYRHEHDGYLQRYMATGEKRIIGIDRVVSGQRKDGSTFPMKLAVGEMRSGGERFFTGFIRDLT", "soluble on expression in E. coli": "soluble"},
      {"sequence": "GSHMLPSCKEDEYPVGSECCPKCSPGYRVKEACGELTGTVCEPCPPGTYIAHLNGLSKCLQCQMCDPAMGLRASRNCSRTENAVCGCSPGHFCIVQDGDHCAACRAYA", "soluble on expression in E. coli": "soluble"},
      {"sequence": "GSHMNPLTQAVPKCQRWEKLQNSRCVCKMPYECGPSLDVCAQDERSKRILPLTVCKMHVLHCQGRNYTLTGRDSCTLPASAEKACGACPLWGKCDAESSKCVCREASECEEEGFSICVEVNGKEQTMSECEAGALRCRGQSISVTSIRPCAAETQ", "soluble on expression in E. coli": "soluble"},
      {"sequence": "GSHMSAMAESKVLVKGTPFNKPVIKGKLENNYDMSQDEVSLLLFLKTHGGKIPLYRIKNETGLKDPESVLKNLMDYGFALEDKERLGEKIVLTSEGEFVAQAIRVRDEELRLKEMKQKKNVNRSSAPPQ", "soluble on expression in E. coli": "soluble"},
      {"sequence": "GSHMSLDNKPIMRVASIDIGSYSVRLTIAQIKDGKLSIILERGRITSLGTKVKETGRLQEDRIEETIQVLKEYKKLIDEFKVERVKAVATEAIRRAKNAEEFLERVKREVGLVVEVITPEQEGRYAYLAVAYSLKPEGEVCVVDQGGGSTEYVFGKGYKVREVISLPIGIVNLTETFFKQDPPTEEEVKRFFEFLEKELSKVKKPVDTIVGLGGTITTLAALEYNVYPYDPQKVHGKVLTYGQIKKWFDTFKEIPSEERSKRFRQVEDRRAKVILAGIGIFLKTLEIFEKDCLIVSDWGLREGVLVSEVLKENHS", "soluble on expression in E. coli": "soluble"},
      {"sequence": "GSHMSQGSGEGEGVQLTAAQELMIQQLVAAQLQCNKRSFSDQPKVTPWPLGADPQSRDARQQRFAHFTELAIISVQEIVDFAKQVPGFLQLGREDQIALLKASTIEIMLLETARRYNHETECITFLKDFTYSKDDFHRAGLQVEFINPIFEFSRAMRRLGLDDAEYALLIAINIFSADRPNVQEPGRVEALQQPYVEALLSYTRIKRPQDQLRFPRMLMKLVSLRTLSSVHSEQVFALRLQDKKLPPLLSEIWDVHE", "soluble on expression in E. coli": "soluble"},
      {"sequence": "GSKNCPDPELCRQSFRRFCYQEVSGPQEALSQLRQLCRQWLQPELHTKEQILELLVMEQFLTILPEEIQARVRHRCLMSSKEIVTLVEDFHRASKKPK", "soluble on expression in E. coli": "soluble"},
      {"sequence": "GSMAAAGNKSINAKLVLLGDVGAGKSSLVLRFVKDQFVEFQESTIGAAFFSQTLAVNDATVKFEIWDTAGQERYHSLAPMYYRGAAAAIIVFDVTNQASFERAKKWVQELQAQGNPNMVMALAGNKSDLLDARKVTAEDAQTYAQENGLFFMETSAKTATNVKEIFYEIARRLPRVQPTEN", "soluble on expression in E. coli": "soluble"},
      {"sequence": "GSMFTPKPPQDSAVIKAGYCVKQGAVMKNWKRRYFQLDENTIGYFKSELEKEPLRVIPLKEVHKVQECKQSDIMMRDNLFEIVTTSRTFYVQADSPEEMHSWIKAVSGAIVAQRGPGRSASSEHP", "soluble on expression in E. coli": "soluble"},
      {"sequence": "GSMTHYDVVVLGAGPGGYVAAIRAAQLGLSTAIVEPKYWGGVCLNVGCIPSKALLRNAELVHIFTKDAKAFGISGEVTFDYGIAYDRSRKVAEGRVAGVHFLMKKNKITEIHGYGTFADANTLLVDLNDGGTESVTFDNAIIATGSSTRLVPGTSLSANVVTYEEQILSRELPKSIIIAGAGAIGMEFGYVLKNYGVDVTIVEFLPRALPNEDADVSKEIEKQFKKLGVTILTATKVESIADGGSQVTVTVTKDGVAQELKAEKVLQAIGFAPNVEGYGLDKAGVALTDRKAIGVDDYMRTNVGHIYAIGDVNGLLQLAHVAEAQGVVAAETIAGAETLTLGDHRMLPRATFCQPNVASFGLTEQQARNEGYDVVVAKFPFTANAKAHGVGDPSGFVKLVADAKHGELLGGHLVGHDVAELLPELTLAQRWDLTASELARNVHTHPTMSEALQECFHGLVGHMINF", "soluble on expression in E. coli": "soluble"},
      {"sequence": "GSPEETLVIALYDYQTNDPQELALRCDEEYYLLDSSEIHWWRVQDKNGHEGYAPSSYLVEKSP", "soluble on expression in E. coli": "soluble"},
      {"sequence": "GSRIAKRTAINKTKKADVKAIADAWQINGEKELELLQQIAQKPGALRILNHSLRLAAMTAHGKGERVNEDYLRQAFRELDLDVDISTLLRN", "soluble on expression in E. coli": "soluble"},
      {"sequence": "GSSGSSGQFSDMRISINQTPGKSLDFGFTIKWDIPGIFVASVEAGSPAEFSQLQVDDEIIAINNTKFSYNDSKEWEEAMAKAQETGHLVMDVRRYGK", "soluble on expression in E. coli": "soluble"},
      {"sequence": "GSSLASQGQNLSTVLANLTPEQQKNVLGERLYNHIVAINPAAAAKVTGMLLEMDNGEILNLLDTPGLLDAKVQEALEVLNRHMNV", "soluble on expression in E. coli": "soluble"},
      {"sequence": "GSTAMATTMEQEICAHSMTFEECPKCSALQYRNGFYLLKYDEEWYPEELLTDGEDDVFDPDLDMEVVFETQ", "soluble on expression in E. coli": "soluble"},
      {"sequence": "GSVSMSGGFLRDDHLEFALHLHRRLAEAVPDGEVIWSPYSVACALGVLAAGARATTRTELTTLLGTDPAPLLAALDRAVTDSPDLASRTVLWVSADVPVRSSFRATMHDRPDSDVRTADFRTNPEGVRATVNADIADATRGMIRELLPQGAVTPDLRAILTNALWAKARWTTPFEAHLTRAGTFRTPRGPKRVPFMHRTKTMPYATARGWRMVTLHAHDELAVDVLLPPGTNAAAVPTAPLLTALHRRSASTSVELALPRFELTQPHQLVEVLAEAGVRTLFTASADLSGISTVPLYVDTVIHQARLRVDERGAEGAAATAAMMLLAGAMPPRRTIRFSVDRPFHIVVRRRGAILFLGSIADPHDPGPAQ", "soluble on expression in E. coli": "soluble"},
      {"sequence": "GTAGKVIKCKAAVLWEQKQPFSIEEIEVAPPKTKEVRIKILATGICRTDDHVIKGTMVSKFPVIVGHEATGIVESIGEGVTTVKPGDKVIPLFLPQCRECNACRNPDGNLCIRSDITGRGVLADGTTRFTCKGKPVHHFMNTSTFTEYTVVDESSVAKIDDAAPPEKVCLIGCGFSTGYGAAVKTGKVKPGSTCVVFGLGGVGLSVIMGCKSAGASRIIGIDLNKDKFEKAMAVGATECISPKDSTKPISEVLSEMTGNNVGYTFEVIGHLETMIDALASCHMNYGTSVVVGVPPSAKMLTYDPMLLFTGRTWKGCVFGGLKSRDDVPKLVTEFLAKKFDLDQLITHVLPFKKISEGFELLNSGQSIRTVLTF", "soluble on expression in E. coli": "soluble"},
      {"sequence": "GTKASKSGVPVTQTQTAGADTTAEKCKGKGEKDCKSPDCKWEGGTCKD", "soluble on expression in E. coli": "soluble"},
      {"sequence": "GTPLPENENMSLYQSRVTVGELEMLASRFVGRTRVRNAFAQYWSQQRETLLPNQQASSALIRHTERVLAGVFGASSAKLVLTSALQGRKMQLEEVATIVDEASELYDFSRGLLQGAIEHIG", "soluble on expression in E. coli": "not soluble"},
      {"sequence": "GVTGADGTTTFTLKQDQTTGLKTELTAALDSSSSTKSTLPVVFTVLTSPDSPKAKFWGHMAETATGDDGLIYRRPLLRDENSATTSIGTLVEEGEAWSTFPSGQANDTSINGCGAEYVPTDNELRAIYAHQGSSALHDAIGWPVSRFYISNTVADTFTQTFTYDVVSLKTGDETQMPSSGGALLSCR", "soluble on expression in E. coli": "not soluble"},
      {"sequence": "GVVETPRSALKVTAQPNDVLLGNYVVLSPQTVLKSSKLAPVHPLAEQVKIITHNGRAGGYQVDGYDGRVLLPCGSAIPVPEFQALSESATMVYNEREFVNRKLYHIAVHGPSLNTDEENYEKVRAERTDAEYVFDVDKKCCVKREEASGLVLVGELTNPPFHEFAYEGLKIRPSAPYKTTVVGVFGVPGSGKSAIIKSLVTKHDLVTSGKKENCQEIVNDVKKHRGKGTSRENSDSILLNGCRRAVDILYVDEAFACHSGTLLALIALVKPRSKVVLCGDPKQCGFFNMMQLKVNFNHNICTEVCHKSISRRCTRPVTAIVSTLHYGGKMRTTNPCNKPIIIDTTGQTKPKPGDIVLTCFRGWAKQLQLDYRGHEVMTAAASQGLTRKGVYAVRQKVNENPLYAPASEHVNVLLTRTEDRLVWKTLAGDPWIKVLSNIPQGNFTATLEEWQEEHDKIMKVIEGPAAPVDAFQNKANVCWAKSLVPVLDTAGIRLTAEEWSTIITAFKEDRAYSPVVALNEICTKYYGVDLDSGLFSAPKVSLYYENNHWDNRPGGRMYGFNAATAARLEARHTFLKGQWHTGKQAVIAERKIQPLSVLDNVIPINRRLPHALVAEYKTVKGSRVEWLVNKVRGYHVLLVSEYNLALPRRRVTWLSPLNVTGADRCYDLSLGLPADAGRFDLVFVNIHTEFRIHHYQQCVDHAMKLQMLGGDALRLLKPGGILMRAYGYADKISEAVVSSLSRKFSSARVLRPDCVTSNTEVFLLFSNFDNGKRPSTLHQMNTKLSAVYAGEAMHTAGC", "soluble on expression in E. coli": "soluble"},
      {"sequence": "GYMPPIEHLQNPIDKYASQLISADGKVFGSYAHSGDNRIYTRYNEISPDLIKALIATEDVRFRKHSGIDSKGLFRAVVKRGILNQKSGGGGSTITQQLAKLLYSPRTETKLGRLFQKPIEWVIAVKLERFYTKEEIITMYLNYFDFLYNAVGIKSAAYTYFGKQPADLKIEEAAVLVGMCKNPAYYNPVLHGETERCRGRRNIVLEQMYKAKYITKAECDSLQKLPLVTSFHRITHRDGEAPYFRERLRQVLMAKKPERKNYLAWQDDQYRADSIAWETDPVYGWCNKNKKADGSNYNIYTDGLKIYTTIDLRMQQYAEEAMVKQMKEVLQPIFDKEKRGRSYAPFSRDITSDEQRSILLRAMKQTDRWREMKKAGISESEIRASFNKKRKMQVWNWRGTIDTVMSPLDSIKYLKGILRTGFMAMNPHNGHIKAYVGGINFRNFQYDMVSQGRRQVGSTIKPFLYSLSMLEGISPCDEMLHVSQTLFTESGKAWTPKNTGARRTGEMVSIKWGLQNSSNWVTAYLMGRTSPYTFVRLLRS", "soluble on expression in E. coli": "not soluble"},
      {"sequence": "HETENAWRETEERLAATYQAATIGIAESDADGRLLRVNDAFCTMLGRSREQLLNMTFLDYTHEDDRDEEARCYARQVSGETDTYAIRKRAVKADGTVIYLDVYSSTVRDRTGRFRYGVRVLLDVT", "soluble on expression in E. coli": "not soluble"},
      {"sequence": "HLDGRGAAMMEMAGLAQKGGAVQIHCRIAEKPSDISAIRVAVGEADGVIGGDLVVTAGAKTLGLMSQGRTGAVVNSHDIVTGEFTRNTDFRVPSDRLQVSLQARLQDRVAFLDATELARILMGDSIYSNMMVFGAAWQRGLIPLSAEAIQRAIELNGAAVAQNARAFALGRWAVL", "soluble on expression in E. coli": "not soluble"}
    ]}
  ]
}
